According to patent US6025158A, “Nucleic acids encoding humanized anti-IL-8 monoclonal antibodies” (Genentech, Inc., dated 2000):
Read-outs that look alike come from different tables or passages of the source.

How the values were obtained:
[1] = tested on: IL-8 induced human neutrophil chemotaxis; assay: neutrophil chemotaxis induced by IL-8, Boyden chamber method; assay type: cell-based; conditions: 1:10 ratio of IL-8 to mAb
Method: The ability of the anti-IL-8 antibodies to block neutrophil chemotaxis induced by IL-8 was tested as follows. Neutrophil chemotaxis induced by IL-8 was determined using a Boyden chamber method (Larsen, et al. Science 243:1464 (1989)). One hundred μl of human neutrophils (10^6 cells/ml) resuspended in RPMI containing 0.1% BSA were placed in the upper chamber and 29 μl of the IL-8 (20 nM) with or without monoclonal antibodies were placed in the lower chamber. Cells were incubated for 1 hr at 37° C. Neutrophils migrated into the lower chamber were stained with Wright's Giemsa stain and counted under the microscope (100×magnification). Approximately 10 different fields per experimental group were examined. Neutralizing monoclonal antibodies 5.12.14 and 4.1.3 blocked almost 70% of the neutrophil chemotactic activity of IL-8 at 1:10 ratio of IL-8 to mAb.

[2] = tested on: human IL-8 mediated elastase release from human neutrophils; assay: IL-8 mediated release of elastase by neutrophils (mAb); assay type: cell-based; conditions: 1:1 ratio of IL-8 to mAb
Method: One of the antibodies, mAb 5.12.14, was further studied to determine whether it could block the IL-8 mediated release of elastase by neutrophils. Briefly, human neutrophils were resuspended in Hanks balanced salt solution (Gibco, Grand Island, N.Y.) containing 1.0% BSA, Fraction V (Sigma, St. Louis, Mo.), 2 mg/ml alpha-D-glucose (Sigma), 4.2 mM sodium bicarbonate (Sigma) and 0.01 M HEPES, pH 7.1 (JRH Bioscience, Lenexa, Kans.). A stock of cytochalasin B (Sigma) was prepared (5 mg/ml in dimethylsulfoxide (Sigma) and stored at 2-8° C. Cytochalasin B was added to the neutrophil preparation to produce a final concentration of 5 μg/ml, and incubated for 15 min at 37° C. Human IL-8 was incubated with mAb 5.12.14 (20 μl), or a negative control antibody, in 1 ml polypropylene tubes (DBM Scientific, San Fernando, Calif.) for 30 min at 37° C. The final assay concentrations of IL-8 were 50 and 500 nM. The monoclonal antibodies were diluted to produce the following ratios (IL-8:Mab): 1:50, 1:10, 1:2, 1:1, and 1:0.25. Cytochalasin B-treated neutrophils were added (100 μl/tube) and incubated for 2 hours at 25° C. The tubes were centrifuged (210×g, 2-8° C.) for 10 min, and supernatants were transferred to 96 well tissue culture plates (30 μl/well). […] Absorbance was measured at 405 nm (SLT 340 ATTC plate reader, SLT Lab Instruments, Austria).

[3] = molecular target: T1, IL-8 binding to human neutrophils (Homo sapiens, UniProt P10145); assay: receptor binding assay: 125I-IL-8 bound to human neutrophils in presence of mAbs; conditions: 1:25 molar ratio of IL-8 to mAb
T1 construct: is intended to mean (ser-IL-8)72 unless otherwise specified; ubiquitin (production fusion); made in house
Method: Neutrophils were prepared by using Mono-Poly Resolving Medium (M-PRM) (Flow Lab. Inc., McLean, Va.). Briefly fresh, heparinized human blood was loaded onto M-PRM at a ratio of blood to medium, 3.5:3.0, and centrifuged at 300×g for 30 min at room temperature. Neutrophils enriched at the middle layer were collected and washed once in PBS. […] The receptor binding assay was done as follows. […] The mixture was then incubated with 100 μl of neutrophils (10^7 cells/ml) for 15 min at 37° C. […] The supernatant was removed by aspiration and the radioactivity associated with the pellet was counted in a gamma counter.

[4] = molecular target: T2, IL-8 (Homo sapiens, UniProt P10145); assay: competitive binding ELISA (epitope comparison of biotinylated and unlabeled mAbs); set-up: is intended to mean (ser-IL-8)72 unless otherwise specified; ubiquitin (production fusion); made in house; conditions: biotinylated mAb to unlabeled mAb 1:100
Method: To assess whether these monoclonal antibodies bound to the same epitopes, a competitive binding ELISA was performed. […] Thus, mAb 4.1.3 and mAb 5.2.3 bind to a different epitope(s) than the epitope recognized by monoclonal antibodies 12.3.9, 4.8 and 5.12.14.

[5] = isoelectric focusing (IEF); assay type: physicochemical; conditions: IEF pH 3-9
Method: The isoelectric focusing (IEF) pattern of each mAb was determined by applying purified antibodies on an IEF polyacrylamide gel (pH 3-9, Pharmacia) using the Fast gel system (Pharmacia, Piscataway, N.J.). The IEF gel was pretreated with pharmalyte containing 1% Triton X100 (Sigma, St. Louis, Mo.) for 10 min before loading the samples. The IEF pattern was visualized by silver staining according to the instructions from the manufacturer. All of the monoclonal antibodies had different IEF patterns, confirming that they originated from different clones.

[6] = molecular target: T2, IL-8; assay: radioimmune precipitation test (RIP), capture of soluble 125I-IL-8; assay type: binding; set-up: is intended to mean (ser-IL-8)72 unless otherwise specified; ubiquitin (production fusion); made in house
Method: One hundred microliters of a predetermined concentration of goat anti-mouse Ig antisera (Pel-Freez, Rogers, Ark.) were added and the mixture was incubated at room temperature for 1 hr. Immune complexes were precipitated by the addition of 0.5 ml of 6% polyethylene glycol (M.W. 8000) kept at 4° C. After centrifugation at 2,000×g for 20 min at 4° C., the supernatant was removed by aspiration and the radioactivity remaining in the pellet was counted in a gamma counter. Percent specific binding was calculated as (precipitated cpm-background cpm)/(total cpm-background cpm).

[7] = molecular target: IL-8 binding to IL-8 receptors on human neutrophils (Homo sapiens, UniProt P10145); assay: inhibition of 125I-IL-8 binding to human neutrophils (competition binding assay); conditions: read-out: average IC50, inhibition of 125I-IL-8 binding to human neutrophils; characterization of 6G4V11N35A Fab and F(ab')2 (FIGS. 33, 38)
[8] = tested on: neutrophils in bronchoalveolar lavage (BAL) fluid; assay: neutrophils in bronchoalveolar lavage (BAL) fluid of animals infected with bacteria; assay type: in vivo; conditions: infected with Streptococcus pneumoniae, Escherichia coli, or Pseudomonas aeruginosa; versus isotype control mouse IgG
Source text: FIG. 12 is a graph depicting the effect of anti-IL-8 monoclonal antibody treatment on the number of neutrophils in bronchoalveolar lavage (BAL) fluid in animals infected with Streptococcus pneumoniae, Escherichia coli, or Pseudomonas aeruginosa.

[9] = molecular target: T3, recombinant human IL-8, (ser-IL-8)72 (human, UniProt P10145); assay: 125I-IL-8 neutrophil competition; reference by Table 4: chimeric F(ab)
[10] = molecular target: T3, recombinant human IL-8, (ser-IL-8)72; assay: inhibition of 125I-IL-8 binding to human neutrophils
[11] = molecular target: T3, recombinant human IL-8, (ser-IL-8)72; assay: as above; remark: listed apart in the source
[12] = molecular target: T3, recombinant human IL-8, (ser-IL-8)72; assay: KinExA, equilibrium, human IL-8
Method: The beads were resuspended in assay buffer (0.1% bovine serum albumin in PBS) to a final volume of 30 ml.
The equilibrium constant (Kd) was calculated using the software provided by Sapidyne Instruments Inc.

[13] = molecular target: T4, rabbit IL-8 (rabbit, UniProt P19874); assay: cell-based or functional assay
T4 sequence: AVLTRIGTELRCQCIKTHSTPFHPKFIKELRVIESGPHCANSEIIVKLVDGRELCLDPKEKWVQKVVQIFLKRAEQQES

[14] = molecular target: human monomeric IL-8 (human)
[15] = molecular target: T3, recombinant human IL-8, (ser-IL-8)72
[16] = molecular target: T3, recombinant human IL-8, (ser-IL-8)72; remark: listed apart in the source

B1: 5.12.14: murine anti-human IL-8 monoclonal antibody, IgG2a, hybridoma ATCC HB 11553 (antibody, V domains shown)
VL: KASQNVGTNVAWYQQKPGQSPKALIYSSSYRYSGVPDRFTGSGSGTDFTLTISHVQSEDLADYFCQQYNIYPLTFGPGTKLELKRADAAPPTVSIFPPFE
VH: ASGFIFSSYGMSWVRQTPGKSLELVATINNNGDSTYYPDSVKGRFTISRDNAKNTLYLQMSSLKSEDTAMFYCARALISSATWFGYWGQGTLVTVSAAKTTAPSVYP
[1]
  block of neutrophil chemotactic activity of IL-8: ~70%
[2]
  block of IL-8 mediated release of elastase from neutrophils: able to effectively block the release of elastase from neutrophils
[3]
  inhibition of binding of IL-8 to human neutrophils: greater than 85%
[4]
  inhibition of binding of biotinylated mAb (epitope): significantly inhibited by its homologous mAb but not by mAb 4.1.3
[5]
  pI: 6.2-7.4
[6]; 125I-IL-8, RIP
  % Specific Binding to IL-8: 98%
[6]; RIP
  ability to capture soluble 125I-IL-8: captured ^125 I-IL-8 very efficiently

B2: 6G4.2.5: murine anti-rabbit IL-8 monoclonal antibody, IgG2a, hybridoma ATCC HB 11722 (antibody, V domains shown)
VL: DIVMTQTPLSLPVSLGDQASISCRSSQSLVHGIGNTYLHWYLQKPGQSPKLLIYYKVSNRFSGVPDRFSDSGSGTDFTLRISRVEAEDLGLYFCSQSTHVPLTFGAGTKLELKR
VH: EIQLQQSGPELMKPGASVKISCKASGYSFSSHYMHWVKQSHGKSLEWIGYIDPSNGETTYNQKFKGKATLTVDTSSSTANVHLSSLTSDDSAVYFCAARGDYRYNGDWFFDVWGAGT
[7]
  IC50: 5 nM
[8]
  number of neutrophils in BAL fluid: significantly reduced the number of neutrophils present in the BAL fluid

B3: humanized 6G425 F(ab)-1 (Fab, V domains shown)
VH: EVQLVESGGGLVQPGGSLRLSCAASGYSFSSHYMHWVRQAPGKGLEWVGYIDPSNGETTYNQKFKGRFTISRDNSKNTLYLQMNSLRAEDTAVYYCAARGDYRYNGDWFFDVWGQGT
VL: DIQMTQSPSSLSASVGDRVTITCRSSQSLVHGIGNTYLHWYQQKPGKAPKLLIYYKVSNRFSGVPSRFSGSGSGTDFTLTISSLQPEDFATYYCSQSTHVPLTFGQGTKVEIKR
[9]
  fold reduction in binding affinity: 5.5 fold
[10]
  IC50: 63 nM
[11]
  IC50: 40 nM

B4: 6G4V11N35A Fab (Fab, V domains shown)
VH: EVQLVQSGGGLVQPGGSLRLSCAASGYSFSSHYMHWVRQAPGKGLEWVGYIDPSNGETTYNQKFKGRFTLSRDNSKNTAYLQMNSLRAEDTAVYYCARGDYRYNGDWFFDVWGQGTLVTVSS
VL: DIQMTQSPSSLSASVGDRVTITCRSSQSLVHGIGATYLHWYQQKPGKAPKLLIYKVSNRFSGVPSRFSGSGSGTDFTLTISSLQPEDFATYYCSQSTHVPLTFGQGTKVEIKR
[12]
  Kd: ~0.114 nM
[13]
  IC50, IL-8 mediated neutrophil chemotaxis: 5 nM
[14]
  IC50, IL-8 mediated neutrophil chemotaxis: 1 nM
[15]
  IC50, IL-8 mediated PMN chemotaxis: 0.8 nM
[16]
  IC50, human IL-8 mediated neutrophil chemotaxis: 2.7 nM
